Assay results taken from paper PMC4191604 (Journal of Medicinal Chemistry, 2014).
Where two headings read alike, the source gives them in different places.

Tests used:
Assay in all cases: SPR
[1] = biological target: T1, GBP1 GTPase (human GBP1, recombinant wild type) (human, UniProt P32455 1-592)
T1 sequence (looked up): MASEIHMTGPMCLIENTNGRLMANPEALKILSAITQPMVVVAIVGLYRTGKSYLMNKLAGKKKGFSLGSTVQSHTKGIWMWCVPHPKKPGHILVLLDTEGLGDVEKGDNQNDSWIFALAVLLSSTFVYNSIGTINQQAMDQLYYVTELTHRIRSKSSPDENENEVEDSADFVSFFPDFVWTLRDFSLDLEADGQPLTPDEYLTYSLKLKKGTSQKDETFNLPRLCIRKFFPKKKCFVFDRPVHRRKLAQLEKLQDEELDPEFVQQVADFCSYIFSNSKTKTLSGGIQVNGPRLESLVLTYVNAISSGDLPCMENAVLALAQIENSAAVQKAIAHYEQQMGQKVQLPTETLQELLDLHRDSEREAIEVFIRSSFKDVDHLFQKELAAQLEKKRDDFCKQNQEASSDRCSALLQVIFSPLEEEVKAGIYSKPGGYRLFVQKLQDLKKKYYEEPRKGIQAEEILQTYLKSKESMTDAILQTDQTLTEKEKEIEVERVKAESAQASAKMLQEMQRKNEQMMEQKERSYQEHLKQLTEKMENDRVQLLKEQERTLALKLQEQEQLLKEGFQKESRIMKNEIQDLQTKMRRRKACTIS

GBP1 mutant R227E/K228E = biological target: T2, GBP1 mutant R227E/K228E (human, UniProt P32455 1-592, R227E | K228E)
T2 sequence (looked up): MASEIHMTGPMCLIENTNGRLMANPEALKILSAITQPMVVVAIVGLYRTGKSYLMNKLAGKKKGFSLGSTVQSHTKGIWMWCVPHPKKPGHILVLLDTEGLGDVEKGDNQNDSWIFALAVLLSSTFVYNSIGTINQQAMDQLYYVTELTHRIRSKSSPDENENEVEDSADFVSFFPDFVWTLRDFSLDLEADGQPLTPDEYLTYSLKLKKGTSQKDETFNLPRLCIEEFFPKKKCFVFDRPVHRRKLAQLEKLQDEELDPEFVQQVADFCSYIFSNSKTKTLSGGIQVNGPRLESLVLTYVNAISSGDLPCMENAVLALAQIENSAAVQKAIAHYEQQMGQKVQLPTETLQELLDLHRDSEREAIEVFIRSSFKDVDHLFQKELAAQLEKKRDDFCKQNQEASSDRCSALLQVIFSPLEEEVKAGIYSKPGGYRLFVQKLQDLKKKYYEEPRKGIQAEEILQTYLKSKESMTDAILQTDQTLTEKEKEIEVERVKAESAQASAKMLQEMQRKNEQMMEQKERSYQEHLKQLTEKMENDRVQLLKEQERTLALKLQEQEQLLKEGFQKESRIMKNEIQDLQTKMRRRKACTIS

GBP1 mutant K51A [2] = biological target: T3, GBP1 mutant K51A (human, UniProt P32455 1-592, K51A)
T3 sequence (looked up): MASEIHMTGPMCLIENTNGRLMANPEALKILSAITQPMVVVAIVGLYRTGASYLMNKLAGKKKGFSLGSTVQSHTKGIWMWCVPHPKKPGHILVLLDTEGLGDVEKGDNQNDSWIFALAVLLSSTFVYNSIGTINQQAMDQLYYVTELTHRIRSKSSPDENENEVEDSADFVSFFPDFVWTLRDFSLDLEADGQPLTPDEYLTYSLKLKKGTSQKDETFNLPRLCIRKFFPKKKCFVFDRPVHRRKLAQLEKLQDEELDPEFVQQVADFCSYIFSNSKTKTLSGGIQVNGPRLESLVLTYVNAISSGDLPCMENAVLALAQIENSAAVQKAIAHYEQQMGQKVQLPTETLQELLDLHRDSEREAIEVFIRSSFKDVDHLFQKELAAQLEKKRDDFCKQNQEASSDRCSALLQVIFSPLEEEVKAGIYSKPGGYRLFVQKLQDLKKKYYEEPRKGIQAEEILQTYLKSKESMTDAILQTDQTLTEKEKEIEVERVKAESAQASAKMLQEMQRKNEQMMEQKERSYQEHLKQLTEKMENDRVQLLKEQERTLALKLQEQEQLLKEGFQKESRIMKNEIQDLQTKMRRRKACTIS

GBP1 mutant Q72A = biological target: T4, GBP1 mutant Q72A (human, UniProt P32455 1-592, Q72A)
T4 sequence (looked up): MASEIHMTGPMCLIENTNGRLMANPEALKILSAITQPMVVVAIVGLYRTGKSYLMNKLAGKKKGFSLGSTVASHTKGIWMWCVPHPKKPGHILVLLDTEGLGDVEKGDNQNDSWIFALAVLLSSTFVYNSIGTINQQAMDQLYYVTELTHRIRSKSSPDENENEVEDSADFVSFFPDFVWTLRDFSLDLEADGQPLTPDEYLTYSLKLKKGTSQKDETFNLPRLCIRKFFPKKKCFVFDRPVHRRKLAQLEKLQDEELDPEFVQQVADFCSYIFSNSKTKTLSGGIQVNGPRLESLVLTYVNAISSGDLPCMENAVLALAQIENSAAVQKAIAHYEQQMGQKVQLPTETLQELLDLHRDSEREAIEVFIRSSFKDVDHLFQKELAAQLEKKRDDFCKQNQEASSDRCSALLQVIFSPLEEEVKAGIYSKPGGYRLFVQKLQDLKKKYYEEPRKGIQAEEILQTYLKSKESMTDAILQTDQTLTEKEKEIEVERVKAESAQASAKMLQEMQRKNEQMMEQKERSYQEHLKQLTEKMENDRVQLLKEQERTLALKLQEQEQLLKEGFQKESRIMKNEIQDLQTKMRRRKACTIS

GBP1 mutant K51A [3] = biological target: T3, GBP1 mutant K51A; remark: listed apart in the source

B1: PIM1 (recombinant) (enzyme)
chain: not shown
- Kd [1]: 30 ± 10 nM
- Kd (GBP1 mutant R227E/K228E): > 10000 nM
- Kd (GBP1 mutant K51A [2]): 26 ± 11 nM
- Kd (GBP1 mutant Q72A): 161 ± 17 nM
- Kd (GBP1 mutant K51A [3]): 50 ± 10 nM
